Laboratory results from article PMC5415409 (Nature cell biology, 2017).

Molecular target: Growth Factor Receptor-bound 2 (GRB2), endogenous in HEK cells (human (endogenous in HEK), UniProt P62993 1-217)
Test: co-IP

Sequence of Growth Factor Receptor-bound 2 (GRB2), endogenous in HEK cells (P62993 whole entry): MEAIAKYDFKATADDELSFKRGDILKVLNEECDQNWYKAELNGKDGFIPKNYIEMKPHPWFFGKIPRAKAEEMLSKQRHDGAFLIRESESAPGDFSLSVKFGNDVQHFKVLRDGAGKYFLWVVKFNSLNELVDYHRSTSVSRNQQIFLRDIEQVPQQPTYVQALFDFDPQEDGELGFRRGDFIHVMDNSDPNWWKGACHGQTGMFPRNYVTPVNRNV

B1: wild-type SWELL1 (SWELL1^WT), transiently expressed in HEK cells (natural protein, UniProt Q8IWT6 1-810, looked up)
chain: MIPVTELRYFADTQPAYRILKPWWDVFTDYISIVMLMIAVFGGTLQVTQDKMICLPCKWVTKDSCNDSFRGWAAPGPEPTYPNSTILPTPDTGPTGIKYDLDRHQYNYVDAVCYENRLHWFAKYFPYLVLLHTLIFLACSNFWFKFPRTSSKLEHFVSILLKCFDSPWTTRALSETVVEESDPKPAFSKMNGSMDKKSSTVSEDVEATVPMLQRTKSRIEQGIVDRSETGVLDKKEGEQAKALFEKVKKFRTHVEEGDIVYRLYMRQTIIKVIKFILIICYTVYYVHNIKFDVDCTVDIESLTGYRTYRCAHPLATLFKILASFYISLVIFYGLICMYTLWWMLRRSLKKYSFESIREESSYSDIPDVKNDFAFMLHLIDQYDPLYSKRFAVFLSEVSENKLRQLNLNNEWTLDKLRQRLTKNAQDKLELHLFMLSGIPDTVFDLVELEVLKLELIPDVTIPPSIAQLTGLKELWLYHTAAKIEAPALAFLRENLRALHIKFTDIKEIPLWIYSLKTLEELHLTGNLSAENNRYIVIDGLRELKRLKVLRLKSNLSKLPQVVTDVGVHLQKLSINNEGTKLIVLNSLKKMANLTELELIRCDLERIPHSIFSLHNLQEIDLKDNNLKTIEEIISFQHLHRLTCLKLWYNHIAYIPIQIGNLTNLERLYLNRNKIEKIPTQLFYCRKLRYLDLSHNNLTFLPADIGLLQNLQNLAITANRIETLPPELFQCRKLRALHLGNNVLQSLPSRVGELTNLTQIELRGNRLECLPVELGECPLLKRSGLVVEEDLFNTLPPEVKERLWRADKEQA
For B1, which “densitometry ratio SWELL1/GRB2 in the GRB2 immunoprecipitate” value is on record?
Its value is 0.31.
